Data on 34 variants can be found in paper PMC8424379 (2021).

B1: full-length Ccq1 fused to Gal4 activation domain [S. pombe] / Raf2 fused to Gal4 DNA-binding domain [S. pombe] (parent complex)
chain 1: MSEINDFTNSIIINESDTKYEVYSEVNSSNRWIAKEDCPSPLEDVWLLKLAGHKRKLEEPLSCMRNEEPASKQREIEKFLRTDLDHSENDFLTQEVDEFPSTQQLFPIPLQNDTAFDSSEESITKSSKSSFSVLDIGLPMSALQRKMMHRLVQYFAFCIDHFCTGPSDSRIQEKIRLFIQSAHNIAKHPSLYDTEVRNPSAAESTNSHVSLDASNFSSYAENSSKFLFLQELFKNLSPSYSKTFFLFISNQFLANTLTQWLKSQNIDAELWAEEDAKTSQHPAIWICVSKKAPSASHFLQSCPDLSATIFYDIEAYMSVTSSLPSIQSLVLRLIHLGSIEHAIKCFQSSYNASFLVNIVGVVATLSSSSEENSEASNLSTLFEKSGNFEEILGSESHSSITEKTRDIAKNVATWLKNGENFSSWPLPPLMDLASLSVAEPRDSQPSVSQVNDTFVKSSDSTFPSSQSMQSPSKLHSLTSNATDLLSSSSLKKNFFSQQEADEVELSNNYDLQGAAVQYLQRRLRMVEDELHEAINSKNVQQSRSEELEQQISKLTDNLQEYRNTVRELKLDLEKSKKKNEDLSKLEVEKVEEIANLKKELTHLAKQQEFGFKYVQEFSNEDLQGKLIEANEKNYKLTQLLKTQKEDADFITNQYQNASTFAAEQSKEVAKLQAECKRLQAINSKVMEEVKVYNDSRVEALLAKVSSLEETLKILEQKSLPKFTPHNQSPRIIDSN
chain 2: MPPVRAEKKRKTDLIEQVCVTNKAGELVDLEDVLEYGPYSLTGILSSEKDEQEPLFDESIVLGYSIKISPVWTYNLKDVPEKETMSIWIVTPQRRYGILSPSSEYKAIYEQISEKNRLFYLIKTKFKDDMISGTLEDYDNYIEVLKEKLELPSCFQAILLVQKHIRFLLTQMVATSSLHVWSESPFFIRIRSSYEHLILQINKNIYNARQERKKSKLSSNNPSDNNTTMKSSLNQALTLINLPEQPFSISSPTATPQLGVVKRTSPLRFPLNDIWLSGLRIVDPNIESISLWKRIQVSTSPKHQRYISLQEVCSVIAQQLQITNLEALNKLSSHGETLLQIMHTAFTWRGTKLFNDIKHAIGFRSSVQQARSQFRGYCYDYLFMHCNNGEKTSLHLLRTLICMKLDFSNAQLAAKILFHFLLFDIGSGLSGSDYTYEQYINHSAVAFSFTEEIFEKNFVTVLPDFVKLFSISFGYWPAFSFYDELLKLLRNKYPKVYSSTPNLCDQVWLDRTNLFPCNRSTRSTLPYRPTKLLDLASASSCLSKKETDFKQDTGLYSYNLEKVEALKVSPDLQTGIWSCPVQNCLYFAVCDNPYKPSQVIYDHLLGHVDSKFIFKTPSNSVRSFTNKLEHIMYNIN
B2: Ccq1_(496–583), Raf2-binding motif of Ccq1, fused to Gal4 activation domain [S. pombe] / Raf2 fused to Gal4 DNA-binding domain [S. pombe] (parent complex)
chain 1: SQQEADEVELSNNYDLQGAAVQYLQRRLRMVEDELHEAINSKNVQQSRSEELEQQISKLTDNLQEYRNTVRELKLDLEKSKKKNEDLS
chain 2: B1 chain 2
B3: full-length Ccq1 fused to Gal4 activation domain [S. pombe] / Tpz1 fused to the Gal4 DNA binding domain [S. pombe] (parent complex)
chain 1: B1 chain 1
chain 2: MSNCLKHPWLENGLLNLIKNADVLPIRVFKCQPLQIFEYIRYEHPIRCKLSDTEFYIEAEFSSQSISDLNNFTEKRITSLRGGIVTLGNFLIHLIPSQSGIIPWIQVESFNFQGCEGAVFGNPKAITTSALFNALLQSPYLAALANEFNRSIKEGSSYQEASLSQQEKPNDNTSNSRDIKNNIQFHWKNMTSLSIEECIIPKGQQLILEKESEENTTHGIYLEERKMAQGLHNSVSETPEVKQEDNDEDLDAYSWSSSTDSAGEIPSLPTNRKILEKIAEKPPPFESPLEDDETPDQTNEHEANQVNVSQLPLNPRGSGISGRPVESTEQLNSSLTIERSQSIQSTDSKQRVETQSHRRSKIEIFDAQDELFDRSICTTIDDSTGKLLNAEETPIKTGDLHSTSASSVISCTPPAINFTSDICNEQIELEYKRKPIPDYDFMKGLETTLQELYVEHQSKKRRLELFQLTNNHQKNSEACEMCRLGLPHGSFFELLRDWKKIEEFRNKS
B4: full-length Ccq1 fused to Gal4 activation domain [S. pombe] / Clr3 fused to the Gal4 DNA binding domain [S. pombe] (parent complex)
chain 1: B1 chain 1
chain 2: MLASNSDGASTSVKPSDDAVNTVTPWSILLTNNKPMSGSENTLNNESHEMSQILKKSGLCYDPRMRFHATLSEVDDHPEDPRRVLRVFEAIKKAGYVSNVPSPSDVFLRIPAREATLEELLQVHSQEMYDRVTNTEKMSHEDLANLEKISDSLYYNNESAFCARLACGSAIETCTAVVTGQVKNAFAVVRPPGHHAEPHKPGGFCLFNNVSVTARSMLQRFPDKIKRVLIVDWDIHHGNGTQMAFYDDPNVLYVSLHRYENGRFYPGTNYGCAENCGEGPGLGRTVNIPWSCAGMGDGDYIYAFQRVVMPVAYEFDPDLVIVSCGFDAAAGDHIGQFLLTPAAYAHMTQMLMGLADGKVFISLEGGYNLDSISTSALAVAQSLLGIPPGRLHTTYACPQAVATINHVTKIQSQYWRCMRPKHFDANPKDAHVDRLHDVIRTYQAKKLFEDWKITNMPILRDSVSNVFNNQVLCSSNFFQKDNLLVIVHESPRVLGNGTSETNVLNLNDSLLVDPVSLYVEWAMQQDWGLIDINIPEVVTDGENAPVDILSEVKELCLYVWDNYVELSISKNIFFIGGGKAVHGLVNLASSRNVSDRVKCMVNFLGTEPLVGLKTASEEDLPTWYYRHSLVFVSSSNECWKKAKRAKRRYGRLMQSEHTETSDMMEQHYRAVTQYLLHLLQKARPTSQ

In the first test the parent is B1. The experiment in a line: yeast two-hybrid (β-galactosidase); Raf2 fused to Gal4 DNA-binding domain; Ccq1 fused to Gal4 activation domain; parent: 97; read off a plot.
chain 1 V526R: the response was approximately 110.

Turning to chain 1 L511R, the response is approximately 3.8.

As to chain 1 L519R, the response is approximately 4.8.

In the case of chain 1 V516R, the response was approximately 3.8.

As for chain 1 Y518R, the response was approximately 4.5.

For the variant chain 1 M525R, the response was approximately 110.

chain 1 L523R: the response was approximately 51.

The variants in the next test derive from B2. The experiment in a line: yeast two-hybrid (β-galactosidase); Raf2 fused to Gal4 DNA-binding domain; Ccq1 fused to Gal4 activation domain; read off a plot.
With chain 1 SQQEADEVELSNNYDRQGAAVQYLQRRLRMVEDELHEAINSKNVQQSRSEELEQQISKLTDNLQEYRNTVRELKLDLEKSKKKNEDLS, the response is approximately 3.

Regarding chain 1 SQQEADEVELSNNYDLQGAAVQYLQRRRRMVEDELHEAINSKNVQQSRSEELEQQISKLTDNLQEYRNTVRELKLDLEKSKKKNEDLS, the response is approximately 3.

For the variant chain 1 SQQEADEVELSNNYDLQGAAVQYLQRRLRRVEDELHEAINSKNVQQSRSEELEQQISKLTDNLQEYRNTVRELKLDLEKSKKKNEDLS, the response was approximately 92.

chain 1 SQQEADEVELSNNYDLQGAAVQYLQRRLRMVEDERHEAINSKNVQQSRSEELEQQISKLTDNLQEYRNTVRELKLDLEKSKKKNEDLS: the response is approximately 74.

For the variant chain 1 SQQEADEVELSNNYDLQGAAVQYLQRRLRMVEDELHEAINSKNVQQSRSEELEQQISKLTDNLQERRNTVRELKLDLEKSKKKNEDLS, the response was approximately 79.

For the variant chain 1 SQQEADEVERSNNYDLQGAAVQYLQRRLRMVEDELHEAINSKNVQQSRSEELEQQISKLTDNLQEYRNTVRELKLDLEKSKKKNEDLS, the response is approximately 87.

Take chain 1 SQQEADEVELSNNYDLQGAAVQYRQRRLRMVEDELHEAINSKNVQQSRSEELEQQISKLTDNLQEYRNTVRELKLDLEKSKKKNEDLS: the response was approximately 2.5.

For the variant chain 1 SQQEADEVELSNNYDLQGAARQYLQRRLRMVEDELHEAINSKNVQQSRSEELEQQISKLTDNLQEYRNTVRELKLDLEKSKKKNEDLS, the response is approximately 2.8.

With chain 1 SQQEADEVELSNNYDLQGAAVQYLQRRLRMVEDELHEAINSKNVQQSRSEELEQQISKLTDNRQEYRNTVRELKLDLEKSKKKNEDLS, the response is approximately 85.

In the case of chain 1 SQQEADEVELSNNRDLQGAAVQYLQRRLRMVEDELHEAINSKNVQQSRSEELEQQISKLTDNLQEYRNTVRELKLDLEKSKKKNEDLS, the response was approximately 88.

As for chain 1 SQQEADERELSNNYDLQGAAVQYLQRRLRMVEDELHEAINSKNVQQSRSEELEQQISKLTDNLQEYRNTVRELKLDLEKSKKKNEDLS, the response was approximately 82.

Consider chain 1 SQQEADEVELSNNYDLQGAAVQYLQRRLRMREDELHEAINSKNVQQSRSEELEQQISKLTDNLQEYRNTVRELKLDLEKSKKKNEDLS, for which the response is approximately 80.

chain 1 SQQEADEVELSNNYDLQGAAVQRLQRRLRMVEDELHEAINSKNVQQSRSEELEQQISKLTDNLQEYRNTVRELKLDLEKSKKKNEDLS: the response is approximately 3.

Turning to chain 1 SQQEADEVELSNNYDLQGAAVQYLQRRLRMVEDELREAINSKNVQQSRSEELEQQISKLTDNLQEYRNTVRELKLDLEKSKKKNEDLS, the response was approximately 94.

As for chain 1 SQQEADEVELSNNYDLQGAAVQYLQRRLRMVEDELHEAINSKNVQQSRSEEREQQISKLTDNLQEYRNTVRELKLDLEKSKKKNEDLS, the response is approximately 63.

For chain 1 SQQEADEVELSNNYDLQGAAVQYLQRRLRMVEDELHEAINSKNRQQSRSEELEQQISKLTDNLQEYRNTVRELKLDLEKSKKKNEDLS, the response was approximately 81.

For the variant chain 1 SQQEADEVELSNNYDLQGAAVQYLQRRLRMVEDELHEARNSKNVQQSRSEELEQQISKLTDNLQEYRNTVRELKLDLEKSKKKNEDLS, the response was approximately 90.

The variants in another test derive from B3. The experiment in a line: yeast two-hybrid (β-galactosidase); Tpz1 fused to the Gal4 DNA binding domain; Ccq1 fused to Gal4 activation domain; parent: 94; read off a plot.
In the case of chain 1 L519R, the response is approximately 83.

As to chain 1 V516R, the response was approximately 81.

Turning to chain 1 L523R, the response is approximately 90.

Consider chain 1 L511R, for which the response is approximately 95.

chain 1 Y518R: the response is approximately 91.

A further test covers variants of B4. The experiment in a line: yeast two-hybrid (β-galactosidase); Clr3 fused to the Gal4 DNA binding domain; Ccq1 fused to Gal4 activation domain; parent: 97; read off a plot.
With chain 1 Y518R, the response is approximately 80.

With chain 1 L519R, the response was approximately 89.

For the variant chain 1 V516R, the response was approximately 82.

chain 1 L523R: the response is approximately 94.

Consider chain 1 L511R, for which the response is approximately 88.
